Sequences and labels used below:
T1: endothelial protein C receptor (EPCR), extracellular domain, biotinylated on the N-terminal BAP tag (human, UniProt Q9UNN8 18-210, biotin attached to the N-terminal BAP tag (BirA))
T1 construct: also called biotinylated recombinant EPCR; ECPR
T1 sequence: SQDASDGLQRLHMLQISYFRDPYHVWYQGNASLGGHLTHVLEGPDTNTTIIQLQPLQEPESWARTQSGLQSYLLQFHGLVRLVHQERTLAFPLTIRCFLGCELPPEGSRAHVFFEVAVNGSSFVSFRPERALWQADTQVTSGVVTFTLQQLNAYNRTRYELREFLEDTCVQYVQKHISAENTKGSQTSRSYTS

B1: CIDRα1.1 domain of PfEMP1 RAJ116var08 (domain or fragment)
chain: PDCVVDCTGGNCKENKKHDNCRSKIIEEILRSEETTDIDVLYSGKGPGAITKKLHDFCSNPNNYKRANVQKWKCYNKNKDYNNCEMNISSYKDATDPNVMLSVQCFYSWAQNLLIDIIRWEHQLKDCINNTNVTDCDNECNKNCECFEKWIKQKQKEWQQVKEVLKKKDENSHNYYNKLRSVFDSFLYQVMFALNNEEKGKWDQFTEDLEKKFESSKKSAGTGNSQDAIEFLLDHLNDNAITCKDNNSKESC
notes: also called CIDRa1.1 RAJ116var08_RAJ116; RAJ116var08 (1.1)
B2: CIDRα1.1 domain GA011_ERS009959 (domain or fragment)
chain: PDCVVYCEGGECKENENGDNCRSEIIKEIVRSETPTVIDVLYSGNGQDHITEKLDHFCSSTNKEDRKYYKTLKCYNKNNDYNKCEMISWLYQDPKESNLMLSIQCFYSWAQNLLIDTIRWEHQLKDCINNTNVTDCKSNCNKNCKCYKKWIEQKGSEWQQVKQVLKKKDKNSENYYDKLKDVFDTLYFEVMHELNKGKEKGKSEELTEDLKKKFGPSKKNTDAADSKDAIEFLLDHLNDNAITCKDNNSLAVENCTRTKSNPC
notes: also called CIDRa1.1 GA011_ERS009959; GA011 (1.1)
B3: CIDRα1.5a domain 1965-2 (patient isolate 1965) (domain or fragment)
chain: PDCGVECKNGRCKKKTDADGNCGKTQIYDIPKDVTPTDINVLYSGDEYGDIAKRLSEFCRDSKKENGKNTEIWHCYYIGDKHNQCKMEKAVAENKHQTKITTFDFFFDLWIKNLLRDTINWKSQLKNCINNTNKTNCNKTCNENCKCFENWVNQKEKEWNNMKELFKNKNRTSQNYYNKLKSHFDNYFFLVINNVNKGEAKWKKFTDELRNKIDSSKAKNGTSDSQDSIKMLLEHLKEDGTTCTANNPDSICNTPGTDARSLEPASKIEPQNKDTRTNPC
B4: CIDRα1.6a domain of PfEMP1 HB3var02 (domain or fragment)
chain: PECGVQCSGTTCTPKKVIHPNCKDKETYEPGDAKTTDITVLYSGDEEGDIAQKLQDFCNDKNKENDENYEKWQCYYKSSEINKCQMTRSSKKVPKHRGVMSFYAFFDLWVKNLLIDSINWKNDLTNCINNTNVTDCNKDCNKNCVCFDQWVIKKEEEWKNVNKVFENKNIDLHDYYNKLNKHFEGYFFHVMKELNKEEKWYKLMEDLKEKIDFSKGKADGKNSEGAIKVLFDHLKEIAEKCIHNNSNESCEASTNRTPNPC
notes: also called CIDRa1.6a HB3var02_HB3; HB3var02 (1.6a)
B5: CIDRα1.8a domain GA026_ERS010178 (domain or fragment)
chain: PDCVVDCKGAKCEQKMKPDGTCEKPQIYTRPKDVTPKIIKVLFSGDNQEDITEKLSSFCSNPKSKIDRNYQTWKCYYKSGHYNICEMKGSLYKYPEHPNDMLSVECFHLWVKNLLIDTIKWETKLKKCINNTNVTDCDNECNKNCECFENWVEQKKKEWEEVRKVYKDQKESLGIYYKKLENLFDTYYFEVMGALENEEKHGKWNQLTAKLKQIIESHKKNRHSGNSQDAIELLLDHLKETATTCKDNNSNESCDVSKDSKTNPC
notes: also called CIDRa1.8a GA026_ERS010178; GA026 (1.8a)
B6: CIDRα1.7 domain of PfEMP1 IT4var22 (domain or fragment)
chain: PYCGLDCGGKTCTAKQEIYPDCVYNGAYEPPNGAETTEITVLYSADQEGDISNKLSEFCNDENNKNSQKWQCYYVSSENNGCKMEKKNANHTPEVKITKFHNFFEMWVTYLLTETITWKDKLKTCMNNTKTADCIHECNKNCVCFDKWVKQKEDEWNSIKKLFTKEKKMPKQYYGNINIYFESFFFHVMKKLNKEAKWNKLMDELRNKIELSKGNEGTKDLQDAIELLLEYLKEKSTICKDNNTNEACDPTVDPTKNPC
notes: also called CIDRa1.7 IT4var22_IT4; IT4var22 (1.7)
B7: CIDRα1.1 domain of PfEMP1 IT4var20 (domain or fragment)
chain: PDCVVQCKGGKCTEDKKNDKCRSKIIKKILQSEEPTEIHVLNSDDKQGDITKKLEVFCSSTTNYEGRNVQKWKCYNKNSDYNNCEMNISSYKDSTDANVMLSVECFHSWAKNLLIDTIKWEHQLKNCINNTNVTYCESKCIKNCECYEKWIKRKEHEWEKVKNVFGNNNRMSYIYYNNLSRVFDSFLFQVMFALDQDEKGKWDQFTEDLKKKFEPSKTNTPTGKSQDAIEFLLDHLKDNALTCRDNNSNESCDVSKKVKTNPC
notes: also called CIDRa1.1 IT4var20_IT4; IT4var20 (1.1)
B8: CIDRα1.6a domain of PfEMP1 PFD1235w (domain or fragment)
chain: PECGVQCSGTTCTPKKVIHPNCKDKETYEPGDAKTTDITVLYSGDEEGDIAQKLQDFCNDKNKENDENYEKWQCYYKSSEINKCQMTPSSHKVPKHGYIMSFYAFFDLWVKNLLIDSINWKNDLTNCINNTNVTDCKNDCNTNCKCFENWAKTKENEWKKVKTIYKNENGNTNNYYKKLNNHFQGYFFHVMKELNKEEKWYKLMEDLKEKIDSSNLKNGTKDSEGAIKVLFDHLKDIAERCIDNNSKDSC
notes: also called CIDRa1.6a PFD1235w_3D7; PFD1235w (1.6a)
B9: CIDRα1.5b domain 1983-13 (patient isolate 1983) (domain or fragment)
chain: PDCGVECNGKTCTKKEETDENCGKPPNYTIPTDVTPTDINVLYSGDEQGYITKRLSEFCGPTKNYIGKKNELWKCYYDDKQKNNNNNNNICKLQPNAHIKNENIIINFDNFFEFWVRRFLNDTIDWKYDLNTCMNFTNTTKCNNNCNKNCKCFEQWVNIKKTEWKNVTEYFFKHDETSKKKYCEILKDIFENYYVEVIEKFYKGKHKWKERIEKLKNMDCSQVKIGTNASQDQIDIFLSNLKGDATQCTSKNPKSACNKPHAARIITRATTRNPC
B10: CIDRα1.7 domain 1965-8 (patient isolate 1965) (domain or fragment)
chain: PHCGVDCNGKKCTLKSDNDPQCVNKLKYEPPYGVKPTEITVLYSADQEGDISKKLSEFCNDEKKINSKNIETWKCYYKSTYNNACKMDKNSKNHTPEVKITKFHNFFEMWIVYLLTETITWNDKLKTCMNNIKTTDCIDECNTNCVCFDKWVKQKGKEWNSIKKLFIKEQKNPKQNYGNINIYFESFFFHVMDKLNHDEAKWNELMNELKQIIDSSKANTDNKNLQDAIKVLFDHLKEIATICKDNNTNEACEDSKKETQNPC
B11: CIDRα1.6b domain GA019_ERS010031 (domain or fragment)
chain: PYCGLDCVGKTCTAKQEIYPDCVYNGDYEPPNGAETTEITVLYNDNEGDMSKKLSQFCSNENKENIENYQKWKCYYKDRDDIECEMISSSQKDEKHRKVMIFYNFFDLWVKNLLRDSIKWEIELKDCINNTNVTDCKSVCNVNCECFDKWVKQKEKEWDSIKKLLKKKKNVSKKYYTNINKNFEFFFFRVMYELNNEEAKWNKLMENLRTKINSYKKNKRTKDSEGAIKVLFDHLKETATICKDNNTNEACVSSQNATTNPC
notes: also called CIDRa1.6b GA019_ERS010031; GA019 (1.6b)
B12: CIDRα1.5a domain GA013_ERS010323 (domain or fragment)
chain: PYCGVDCSNGTCKENGNDDNCGEQQNYNIPKGVDPTNINVLYSVDGHGDIAKRLSTFCNDKNNKNAKNNEIWQCYYIGHKNNQCKIEKSVSQKKHQTKIAPFDYFFDLWVTNLLRDNIDWKNELKNCINNKNTEKCNKECNDNCKCFQSWLNKKEDEWNKITGLLKNKNGILQNYYNKLKSHFDYYFFQVINNINKGEEKWKKLKEDLKKEIDFSKLKTNTGDSQDSIKLLLDHENKNAGTCLKNNPIDSCPKAEPQKSDEKVQPQDTPPNSC
notes: also called CIDRa1.5a GA013_ERS010323; GA013 (1.5a)
B13: CIDRα1.4 domain of PfEMP1 DD2var32 (domain or fragment)
chain: PDCGVECNKGTCKKKPNDSNCRNNEAYIPPRDVTPTKINVLYSGDGHGDITKKLKGFCSNPTDYDGKNYENWQCYYKSSEDNKCQMTSLSQTLQKHHYVMSFYAFFDFWVRKFLIDTIKWENELKNCINNTTTDCSDGCNKHCVCFDKWVKQKEKEWNSIKKLFTKKNNVPQPYYTNINNLFDSFYFQVMYELNHDEAKWKELTQELRNKINSSKKNTDAADSKDAIELLLEYLKEKSTICKDNNTNEAC
notes: also called CIDRa1.4 DD2var32_DD2; DD2var32 (1.4)
B14: CIDRα1.6b domain GA018_ERS010570 (domain or fragment)
chain: PYCGLDCVGTECTAKEEIYPDCVYNGEYDPPKDVRPTEINVIDSGNAVNISEKLNDFCTNPTNPNDKIYQKWQCYYKSSKVNKCQMTSLTQTLQKHHYVMTFYIFFDLWVKNLLRDSVKWEIELKDCINNTNVTDCNNKCNKNCVCFDKWVKQKKKEWDSIKKLFKTEKDEMKKYYTNINKNFEFFFFRVMYELNNEEAKWNKLMENLRIKIKSSKRNKRTKDSEGVIKVLFDHLKETATICKDNNTNEACVSSQNATTNPC
notes: also called CIDRa1.6b GA018_ERS010570; GA018 (1.6b)
B15: CIDRα1.8a domain of PfEMP1 MAL6P1.316 (domain or fragment)
chain: PACVVECDGGKCEEKKNSDGTCIEAQIYTVVRDETPTPIKVLFSGDHQKDITKKLSSFCKNPESENNRDYQTWQCYYKSSDYNNCEMKGSLYKVEGDPNIIVSHECFHLWVQSLLIDTIKWETKLKKCINNTNVTNCYNKCNKNCECFENWVEQKKKEWENVNDVYKDQKQSLGIYYEKLENLFKSNFFQVMKALEGDEKGKWYQFKDDLKKKFEPSEKNTRTTDSQDAIKLILDHLKDNATTCKDNNSLEEDENC
notes: also called CIDRa1.8a MAL6P1.316_3D7; MAL6P1.316 (1.8a)
B16: CIDRα1.1 domain of PfEMP1 IT4var19 (domain or fragment)
chain: PDCVVVCEGGNCKEKTEDDNCRSEIIKKILKYETPTPIDVLYSGKGQGLITKKLEDFCSSTTNYEGTNVQKWKCYNKNKDYNNCEMNISSYKDATDPNVMLSVECFHSWAKNLLIDTIRWEHQLKNCINNTNVTDCTSKCIKNCECYEKWIKEKEKEWPQVKGVLKKKDETSHNYYDKLKDVFDRFLFEVKGALDQDEKGKWDQFTKDLEKKFGPSVESAGTANSQDAIELLLDHLNDNATTCKDNNSLAVENC
notes: also called CIDRa1.1 IT4var19_IT4; IT4var19 (1.1)

In paper PMC4297295, “Structural Conservation Despite Huge Sequence Diversity Allows EPCR Binding by the PfEMP1 Family Implicated in Severe Childhood Malaria” (Cell Host & Microbe, 2015) one finds Kd, koff and kon data, which are given here for 16 molecules.

The target of the test is T1, endothelial protein C receptor (EPCR), …. As to the kind of experiment: SPR. Particulars: both partners purified.
For B1, binding was put at a Kd of 1.4 nM; the koff (in general, a measure of how fast the partners let go of each other) is 3.85e-05 s⁻¹; the kon (as a rule, the second-order rate constant of association) worked out at 27900 M⁻¹ s⁻¹.
On the same counts, the results for B2 are 182 nM, 7.24e-05 s⁻¹ and 389 M⁻¹ s⁻¹.
On the same counts, the results for B3 are 54 nM, 0.00103 s⁻¹ and 18900 M⁻¹ s⁻¹.
For B4, the Kd (in general, the free concentration of one partner at which half of the binding sites on the other are occupied at equilibrium, for simple one-to-one binding) was found to be 1400 nM; the koff is 0.00139 s⁻¹; the kon came to 975 M⁻¹ s⁻¹.
On the same counts, the results for B5 are 48 nM, 0.000842 s⁻¹ and 17700 M⁻¹ s⁻¹.
B6 displayed a Kd of 17 nM, a koff of 0.00105 s⁻¹ and a kon of 61300 M⁻¹ s⁻¹.
B7 showed a Kd of 0.37 nM, a koff of 0.000123 s⁻¹ and a kon of 332000 M⁻¹ s⁻¹.
The like results for B8 were, in that order, 8.8 nM, 6.62e-05 s⁻¹ and 7550 M⁻¹ s⁻¹.
B9 had a Kd of 169000 nM, a koff of 0.00047 s⁻¹ and a kon of 2.8 M⁻¹ s⁻¹.
With B10, the Kd is 3.5 nM, the koff came out at 0.00021 s⁻¹ and the kon came out at 59200 M⁻¹ s⁻¹.
The like results for B11 were, in that order, 8.8 nM, 0.000328 s⁻¹ and 37000 M⁻¹ s⁻¹.
The like results for B12 were, in that order, 57 nM, 0.000832 s⁻¹ and 14700 M⁻¹ s⁻¹.
On the same counts, the results for B13 are 0.3 nM, 0.000343 s⁻¹ and 1.06e+06 M⁻¹ s⁻¹.
For the molecule B14, the affinity, expressed as Kd, was 15 nM; the koff turned out to be 0.000531 s⁻¹; the kon was found to be 35100 M⁻¹ s⁻¹.
For the molecule B15, the Kd turned out to be 50 nM, the koff is 0.000828 s⁻¹ and the kon stood at 16700 M⁻¹ s⁻¹.
Take B16: the equilibrium dissociation constant (Kd) came out at 16 nM, the koff was determined as 0.000364 s⁻¹ and the kon was found to be 22700 M⁻¹ s⁻¹.
